This passage reports MFI and % inhibition results from patent publication US20120171195A1.

Assay [1] concerns the target HLA-B*1402 (human). The assay is described as follows: Luminex beads; MAb 1/800; competitor IgG-free serum.
Assay [2] deals with HLA-Cw*1802 (human) (UniProt P10321). The description is as above.
Assay [3] has as its target HLA-B*2708 (human) (UniProt P01889). The description is as above.
Assay [4] concerns the target HLA-B*1801 (human). Described as above.
The target in assay [5] is HLA-B*5801 (human). Described as above.
The target of assay [6] is HLA-Cw*1701 (human). The description is as above.
Assay [7] deals with HLA-B*4002 (human) (UniProt P01889). The description is as above.
The target in assay [8] is HLA-Cw*0602 (human) (UniProt P10321). Kind of assay: Luminex beads; MAb 1/100; competitor rHLA-E.
Assay [9] has as its target HLA-B*3701 (human). The assay is described as follows: Luminex beads; MAb 1/100; competitor rHLA-E.
The target in assay [10] is HLA-Cw*0303 (human). The assay is described as follows: Luminex beads; MAb 1/100; competitor rHLA-E.
In assay [11] the target is HLA-Cw*0501 (human). Kind of assay: Luminex beads; MAb 1/100; competitor rHLA-E.
Assay [12] has as its target HLA-B*4501 (human). Kind of assay: Luminex beads; MAb 1/100; competitor rHLA-E.
The target in assay [13] is HLA-B*1511 (human) (UniProt P01889). The assay is described as follows: Luminex beads; MAb 1/100; competitor rHLA-E.
The target of assay [14] is HLA-B*2708 (human) (UniProt P01889). Kind of assay: Luminex beads; MAb 1/100; competitor rHLA-E.
In assay [15] the target is HLA-B*4001 (human) (UniProt P01889). Kind of assay: Luminex beads; MAb 1/100; competitor rHLA-E.
In assay [16] the target is HLA-B*4801 (human) (UniProt P01889). Kind of assay: Luminex beads; MAb 1/100; competitor rHLA-E.
The target of assay [17] is HLA-Cw*1701 (human). The assay is described as follows: Luminex beads; MAb 1/100; competitor rHLA-E.
Assay [18] concerns the target HLA-B*1401 (human) (UniProt P01889). The assay is described as follows: Luminex beads; MAb 1/100; competitor rHLA-E.
The target of assay [19] is HLA-Cw*0702 (human) (UniProt P10321). The assay is described as follows: Luminex beads; MAb 1/100; competitor rHLA-E.
In assay [20] the target is HLA-Cw*0304 (human). The assay is described as follows: Luminex beads; MAb 1/100; competitor rHLA-E.
Assay [21] has as its target HLA-Cw*1502 (human). Kind of assay: Luminex beads; MAb 1/100; competitor rHLA-E.
Assay [22] has as its target HLA-B*0801 (human) (UniProt P01889). The assay is described as follows: Luminex beads; MAb 1/100; competitor rHLA-E.
Assay [23] deals with HLA-Cw*1402 (human) (UniProt P10321). Kind of assay: Luminex beads; MAb 1/100; competitor rHLA-E.
Assay [24] deals with HLA-B*4403 (human). Kind of assay: Luminex beads; MAb 1/100; competitor rHLA-E.
Assay [25] deals with HLA-B*1513 (human). The assay is described as follows: Luminex beads; MAb 1/100; competitor rHLA-E.
In assay [26] the target is HLA-Cw*0202 (human). Kind of assay: Luminex beads; MAb 1/100; competitor rHLA-E.
Assay [27] has as its target HLA-B*5901 (B59) (human). Kind of assay: Luminex single-antigen beads; MEM-E/02 1/600; serum Mi114 1/100.
Assay [28] addresses HLA-B*0801 (B8) (human) (UniProt P01889). The assay is described as above.
Assay [29] addresses HLA-B*5401 (B54) (human) (UniProt P01889). The description is as above.
For assay [30], the target named is HLA-B*1401 (B64) (human) (UniProt P01889). The assay is described as above.
The target in assay [31] is HLA-A*3301 (A33) (human). Described as above.
Assay [32] has as its target HLA-B*5201 (B52) (human). The assay is described as above.
In assay [33] the target is HLA-B*1513 (B77) (human). Described as above.
Assay [34] has as its target HLA-A*2402 (A24) (human) (UniProt P04439). The assay is described as above.
The target in assay [35] is HLA-B*1801 (B18) (human). The description is as above.
In assay [36] the target is HLA-B*3901 (B39) (human) (UniProt P01889). The assay is described as above.
For assay [37], the target named is HLA-Cw*0801 (Cw8) (human) (UniProt P10321). The assay is described as above.
The target in assay [38] is HLA-A*3201 (A32) (human). The assay is described as above.
Assay [39] has as its target HLA-A*2601 (A26) (human). The assay is described as above.
In assay [40] the target is HLA-A*2901 (A29) (human) (UniProt P04439). Described as above.
For assay [41], the target named is HLA-B*5801 (B58) (human). Described as above.

In general, % inhibition refers to the change of the read-out against control, counted positive when it falls. A high value points to strong suppression.

Consider “murine monoclonal antibody (MAb) MEM-E/02”, for which the MFI amounted to 517 MFI in [1]; 3810 MFI in assay [2]; 417 MFI in assay [3]; 777 MFI in assay [4]; 938 MFI in [5]; 676 MFI in assay [6]. For the same substance, the MFI amounted to 655 MFI in assay [7]; 88 MFI in assay [8]; 80 MFI in assay [9]; 139 MFI in assay [10]; 201 MFI in assay [11]; 75 MFI in assay [12]. Besides, the MFI in assay [13] stood at 192 MFI; in assay [14], 191 MFI; in [15], 235 MFI; in assay [16], 224 MFI; in assay [17] it was 376 MFI; in assay [18], 230 MFI. The MFI in [19] was determined as 220 MFI; in assay [20], 181 MFI; in assay [21], 170 MFI; in assay [22] it was 219 MFI; in assay [23], 165 MFI; in assay [24] it was 89 MFI. The MFI in [25] stood at 256 MFI; in [26], 220 MFI.
With murine monoclonal antibody MAb MEM-E/02, the MFI is 930 MFI in [27]; under 500 MFI in assay [28]; 990 MFI in assay [29]; under 500 MFI in assay [30]; under 500 MFI in assay [31]; 1550 MFI in assay [33]. Further, the MFI in assay [34] was under 500 MFI; in assay [35] it was under 500 MFI; in assay [36], 530 MFI; in assay [37], under 500 MFI; in assay [38] it was 742 MFI; in assay [39], under 500 MFI. Moreover, the MFI in [40] was under 500 MFI; in [41] it was 2110 MFI. Besides, the % inhibition stood at 95% in assay [29], 88% in assay [32] and 37% in assay [41].
